Assay results reported in ChEMBL document CHEMBL1134320, “Structure of protein tyrosine phosphatase 1B in complex with inhibitors bearing two phosphotyrosine mimetics” (J Med Chem, 2001).

Substrate: O=P(O)(O)c1ccc(Cc2ccc(P(=O)(O)O)cc2)cc1
Assay: Binding affinity towards the binding site of human protein tyrosine phosphatase 1B (PTP1B) enzyme expressed in Escherichia coli cells

B1: Tyrosine-protein phosphatase non-receptor type 1 (Homo sapiens), P18031 (protein)
chain: MEMEKEFEQIDKSGSWAAIYQDIRHEASDFPCRVAKLPKNKNRNRYRDVSPFDHSRIKLHQEDNDYINASLIKMEEAQRSYILTQGPLPNTCGHFWEMVWEQKSRGVVMLNRVMEKGSLKCAQYWPQKEEKEMIFEDTNLKLTLISEDIKSYYTVRQLELENLTTQETREILHFHYTTWPDFGVPESPASFLNFLFKVRESGSLSPEHGPVVVHCSAGIGRSGTFCLADTCLLLMDKRKDPSSVDIKKVLLEMRKFRMGLIQTADQLRFSYLAVIEGAKFIMGDSSVQDQWKELSHEDLEPPPEHIPPPPRPPKRILEPHNGKCREFFPNHQWVKEETQEDKDCPIKEEKGSPLNAAPYGIESMSQDTEVRSRVVGGSLRGAQAASPAKGEPSLPEKDEDHALSYWKPFLVNMCVATVLTAGAYLCYRFLFNSNT
Km: 16 µM
